Columns and labels:
[1] = biological target: human CLDN18.2 expressed on cells (human); experiment: flow cytometry (geometric mean, Alexa Fluor 647 anti-human IgG Fc secondary) on CLDN18.2-expressing 293T cells
[2] = biological target: human CLDN18.2 expressed on cells (human); experiment: cell-based or functional assay
[3] = biological target: His-tagged human Claudin-18.2 (human); experiment: SPR, Biacore 8K, antibody captured by anti-human IgG (Fc), His-tagged human Claudin-18.2 as analyte
[4] = biological target: recombinant huCLDN18.2-Fc (human); experiment: KinExA 4000, equilibrium in solution, antibody constant, huCLDN18.2-Fc titrated

B1: reference mAb (IMAB362, Ganymed) (antibody, INN chains, looked up, V domains shown)
VH: QVQLQQPGAELVRPGASVKLSCKASGYTFTSYWINWVKQRPGQGLEWIGNIYPSDSYTNYNQKFKDKATLTVDKSSSTAYMQLSSPTSEDSAVYYCTRSWRGNSFDYWGQGTTLTVSS
VL: DIVMTQSPSSLTVTAGEKVTMSCKSSQSLLNSGNQKNYLTWYQQKPGQPPKLLIYWASTRESGVPDRFTGSGSGTDFTLTISSVQAEDLAVYYCQNDYSYPFTFGSGTKLEIKR
**Q.** Which EC50 (read off the curve) [1] does the source give for B1 here?
**A.** Its EC50 (read off the curve) is 0.8 µg/mL.

**Q.** What about the ADCC on KATOIII CLDN18.2 cells, LDH: EC50 (run A) [2] of the same binder?
**A.** Its ADCC on KATOIII CLDN18.2 cells, LDH: EC50 (run A) is 0.12 nM.

**Q.** And the ADCC on KATOIII CLDN18.2 cells, LDH: EC50 (run B) [2]?
**A.** The ADCC on KATOIII CLDN18.2 cells, LDH: EC50 (run B) was 0.22 nM.

**Q.** And the ADCC on KATOIII CLDN18.2 cells, LDH: EC50 (run C) [2]?
**A.** Its ADCC on KATOIII CLDN18.2 cells, LDH: EC50 (run C) is 0.27 nM.

**Q.** What about the ADCC on KATOIII CLDN18.2 cells, LDH: max (% cytotoxity) (run A) [2] of the same binder?
**A.** The ADCC on KATOIII CLDN18.2 cells, LDH: max (% cytotoxity) (run A) was 27.9%.

**Q.** And the ADCC on KATOIII CLDN18.2 cells, LDH: max (% cytotoxity) (run B) [2]?
**A.** The ADCC on KATOIII CLDN18.2 cells, LDH: max (% cytotoxity) (run B) was 24.5%.

**Q.** What about the ADCC on KATOIII CLDN18.2 cells, LDH: max (% cytotoxity) (run C) [2] of the same binder?
**A.** The ADCC on KATOIII CLDN18.2 cells, LDH: max (% cytotoxity) (run C) was 24.5%.

**Q.** What about the ADCC on NCI-N87 CLDN18.2 cells, LDH: EC50 (run A) [2] of the same binder?
**A.** Its ADCC on NCI-N87 CLDN18.2 cells, LDH: EC50 (run A) is 0.057 nM.

**Q.** What about the ADCC on NCI-N87 CLDN18.2 cells, LDH: EC50 (run B) [2] of the same binder?
**A.** Its ADCC on NCI-N87 CLDN18.2 cells, LDH: EC50 (run B) is 0.082 nM.

**Q.** And the ADCC on NCI-N87 CLDN18.2 cells, LDH: EC50 (run C) [2]?
**A.** Its ADCC on NCI-N87 CLDN18.2 cells, LDH: EC50 (run C) is 0.1 nM.

**Q.** What about the ADCC on NCI-N87 CLDN18.2 cells, LDH: max (% cytotoxity) (run A) [2] of the same binder?
**A.** The ADCC on NCI-N87 CLDN18.2 cells, LDH: max (% cytotoxity) (run A) was 26.1%.

**Q.** And the ADCC on NCI-N87 CLDN18.2 cells, LDH: max (% cytotoxity) (run B) [2]?
**A.** The ADCC on NCI-N87 CLDN18.2 cells, LDH: max (% cytotoxity) (run B) was 22.1%.

**Q.** And the ADCC on NCI-N87 CLDN18.2 cells, LDH: max (% cytotoxity) (run C) [2]?
**A.** The ADCC on NCI-N87 CLDN18.2 cells, LDH: max (% cytotoxity) (run C) was 21.1%.

**Q.** What about the CDC on CT26 CLDN18.2 cells, LDH: EC50 (run A) [2] of the same binder?
**A.** The CDC on CT26 CLDN18.2 cells, LDH: EC50 (run A) was 11.5 nM.

**Q.** What about the CDC on CT26 CLDN18.2 cells, LDH: EC50 (run B) [2] of the same binder?
**A.** Its CDC on CT26 CLDN18.2 cells, LDH: EC50 (run B) is 10.7 nM.

**Q.** What about the CDC on CT26 CLDN18.2 cells, LDH: EC50 (run C) [2] of the same binder?
**A.** The CDC on CT26 CLDN18.2 cells, LDH: EC50 (run C) was 11.9 nM.

**Q.** And the CDC on CT26 CLDN18.2 cells, LDH: max (% cytotoxity) (run A) [2]?
**A.** Its CDC on CT26 CLDN18.2 cells, LDH: max (% cytotoxity) (run A) is 72.5%.

**Q.** What about the CDC on CT26 CLDN18.2 cells, LDH: max (% cytotoxity) (run B) [2] of the same binder?
**A.** The CDC on CT26 CLDN18.2 cells, LDH: max (% cytotoxity) (run B) was 54.7%.

**Q.** What about the CDC on CT26 CLDN18.2 cells, LDH: max (% cytotoxity) (run C) [2] of the same binder?
**A.** Its CDC on CT26 CLDN18.2 cells, LDH: max (% cytotoxity) (run C) is 51.6%.

**Q.** And the CDC on KATOIII CLDN18.2 cells, LDH: EC50 (run A) [2]?
**A.** The CDC on KATOIII CLDN18.2 cells, LDH: EC50 (run A) was 38.1 nM.

**Q.** What about the CDC on KATOIII CLDN18.2 cells, LDH: EC50 (run B) [2] of the same binder?
**A.** The CDC on KATOIII CLDN18.2 cells, LDH: EC50 (run B) was 22.7 nM.

**Q.** And the CDC on KATOIII CLDN18.2 cells, LDH: EC50 (run C) [2]?
**A.** Its CDC on KATOIII CLDN18.2 cells, LDH: EC50 (run C) is 27.5 nM.

**Q.** What about the CDC on KATOIII CLDN18.2 cells, LDH: max (% cytotoxity) (run A) [2] of the same binder?
**A.** The CDC on KATOIII CLDN18.2 cells, LDH: max (% cytotoxity) (run A) was 29.7%.

**Q.** And the CDC on KATOIII CLDN18.2 cells, LDH: max (% cytotoxity) (run B) [2]?
**A.** The CDC on KATOIII CLDN18.2 cells, LDH: max (% cytotoxity) (run B) was 46%.

**Q.** What about the CDC on KATOIII CLDN18.2 cells, LDH: max (% cytotoxity) (run C) [2] of the same binder?
**A.** The CDC on KATOIII CLDN18.2 cells, LDH: max (% cytotoxity) (run C) was 34.9%.

B2: YL-G2-B (antibody, human IgG1, kappa)
heavy: EVQLQQSGPELEKPGASVKISCKASGYSFTGYKMNWVKQSNGKSLEWIGNIDPYYGGTTYNQKFKGKATLTVDKSSSTAYMQLKSLTSEDSAVYYCARYGKGNTMDYWGQGTSVTVSSASTKGPSVFPLAPSSKSTSGGTAALGCLVKDYFPEPVTVSWNSGALTSGVHTFPAVLQSSGLYSLSSVVTVPSSSLGTQTYICNVNHKPSNTKVDKRVEPKSCDKTHTCPPCPAPELVGGPSVFLLPPKPKDTLMISRTPEVTCVVVDVSHEDPEVKFNWYVDGVEVHNAKTKPPEEQYNSTLRVVSVLTVLHQDWLNGKEYKCKVSNKALPAPIEKTISKAKGQPREPQVYTLPPSREEMTKNQVSLTCLVKGFYPSDIAVEWESNGQPENNYKTTPLVLDSDGSFFLYSKLTVDKSRWQQGNVFSCSVMHEALHNHYTQKSLSLSPGK
light: DIVMTQSPSSLTVTAGEKVTMSCKSSQSLLNSGNQKNYLTWYQQRPGQPPKLLIYWASTRESGVPVRFTGSGSGTDFTLTISSVQAEDLAVYYCQNAYIYPLTFGTGTKLELKRTVAAPSVFIFPPSDEQLKSGTASVVCLLNNFYPREAKVQWKVDNALQSGNSQESVTEQDSKDSTYSLSSTLTLSKADYEKHKVYACEVTHQGLSSPVTKSFNRGEC
**Q.** Which Kd [3] does the source give for B2 here?
**A.** The Kd was 2.05 nM.

**Q.** What about the koff [3] of the same binder?
**A.** Its koff is 0.0014 s⁻¹.

**Q.** And the kon [3]?
**A.** The kon was 686000 M⁻¹ s⁻¹.

**Q.** And the Kd [4]?
**A.** The Kd was 1.7 nM.

B3: YL-G2-D (antibody, human IgG1, kappa)
heavy: QLQQSGPELEKPGASVKISCKASGYSFTGYKMNWVKQSNGESLEWIGNIDPYYGDTTYTQKFKGKATFTVDTSSSTAYMQLKSLTSEDSAVYFCARYNRGNTMDYWGQGTSVTVSSASTKGPSVFPLAPSSKSTSGGTAALGCLVKDYFPEPVTVSWNSGALTSGVHTFPAVLQSSGLYSLSSVVTVPSSSLGTQTYICNVNHKPSNTKVDKRVEPKSCDKTHTCPPCPAPELVGGPSVFLLPPKPKDTLMISRTPEVTCVVVDVSHEDPEVKFNWYVDGVEVHNAKTKPPEEQYNSTLRVVSVLTVLHQDWLNGKEYKCKVSNKALPAPIEKTISKAKGQPREPQVYTLPPSREEMTKNQVSLTCLVKGFYPSDIAVEWESNGQPENNYKTTPLVLDSDGSFFLYSKLTVDKSRWQQGNVFSCSVMHEALHNHYTQKSLSLSPGK
light: DIVMTQSPSSLTVTAGEKVTLSCKSSQSLLNSGNQKNYLTWYQQRPGQPPKLLIYWASTRESGVPVRFTGSGSGADFTLTISSVQAEDLAVYFCQNAYFYPLTFGTGTKLELRRTVAAPSVFIFPPSDEQLKSGTASVVCLLNNFYPREAKVQWKVDNALQSGNSQESVTEQDSKDSTYSLSSTLTLSKADYEKHKVYACEVTHQGLSSPVTKSFNRGEC
**Q.** For B3, which Kd [3] is on record?
**A.** Its Kd is 1.02 nM.

**Q.** What about the koff [3] of the same binder?
**A.** Its koff is 0.000722 s⁻¹.

**Q.** And the kon [3]?
**A.** Its kon is 707000 M⁻¹ s⁻¹.

**Q.** What about the Kd [4] of the same binder?
**A.** Its Kd is 6.4 nM.

B4: YL-G2-C (antibody, human IgG1, kappa)
heavy: QIQLVQSGPELRKPGETVKISCKASGFPFTTDGMSWVKQAPGKGLKWMGWINTYSGVPTYADDFKGRVAFSLETSASTAYLQIKNLKNEDTATYFCARFRRGNALDNWGQGTSVTVSSASTKGPSVFPLAPSSKSTSGGTAALGCLVKDYFPEPVTVSWNSGALTSGVHTFPAVLQSSGLYSLSSVVTVPSSSLGTQTYICNVNHKPSNTKVDKRVEPKSCDKTHTCPPCPAPELVGGPSVFLLPPKPKDTLMISRTPEVTCVVVDVSHEDPEVKFNWYVDGVEVHNAKTKPPEEQYNSTLRVVSVLTVLHQDWLNGKEYKCKVSNKALPAPIEKTISKAKGQPREPQVYTLPPSREEMTKNQVSLTCLVKGFYPSDIAVEWESNGQPENNYKTTPLVLDSDGSFFLYSKLTVDKSRWQQGNVFSCSVMHEALHNHYTQKSLSLSPGK
light: DIVMTQSPSSLTVTAGEKVTMSCKSSQSLLNSGNQKNYLTWYQQKPGQPPKLLIYWASTRESGVPDRFTGSGSGTDFTLTISSVQAEDLAIYYCQNNYFYPLTFGAGTRLELKRTVAAPSVFIFPPSDEQLKSGTASVVCLLNNFYPREAKVQWKVDNALQSGNSQESVTEQDSKDSTYSLSSTLTLSKADYEKHKVYACEVTHQGLSSPVTKSFNRGEC
**Q.** What does the source list for B4?
**A.** Kd [3]: 1.11 nM; koff [3]: 0.000591 s⁻¹; kon [3]: 532000 M⁻¹ s⁻¹; Kd [4]: 3.8 nM

— US20250263481A1
